Among the data in patent US20220025008A1 (FAPON BIOTECH, published 2022) are Kd values, retold here.

The chains are these.
T1: Recombinant NT antigen (N-terminal pro-brain natriuretic peptide, NT-proBNP) (human, UniProt P16860 27-102)
T1 construct: domain: N-terminal pro-brain natriuretic peptide (NT-proBNP); also called recombinant NT protein; N-terminal pro-B-type natriuretic peptide
T1 sequence (looked up): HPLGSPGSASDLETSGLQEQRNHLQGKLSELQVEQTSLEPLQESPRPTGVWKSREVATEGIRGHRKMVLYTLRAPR

B1: Mutation 1-19 (antibody)
heavy: QVRLQESGPSQVKPAQTLSLTCAISGFSITTYYLDWVRHTPGKPPEWLAQMTKDGNAVHQPTVRSRLSITRDTSKSQVFLKLTGVTTEDTAVYYCVRGIIDFGPGLLVTVSSASTTPPKVYPLTSCCGDTSSSIVTLGCLVSSYMPEPVTVTWNSGALTSGVHTFPAILQSSGLYSLSSVVTVPASTSGAQTFICNVAHPASSTKVDKRVEPGCPDPCKHCRCPPPELPGGPSVFIFPPKPKDTLTISGTPEVTCVVVDVGQDDPEVQFSWFVDNVEVRTARTKPREEQFNSTFRVVSALPIQHQDWTGGKEFKCKVHNEGLPAPIVRTISRTKGQAREPQVYVLAPPQEELSKSTLSVTCLVTGFYPDYIAVEWQKNGQPESEDKYGTTTSQLDADGSYFLYSRLRVDKNSWQEGDTYACVVMHEALHNHYTQKSISKPPGK
light: QAVLTQPSSVSRSLGQTVSITCSGSSDNVGFGDYLNWFQLIPGSAPKTLIFGATSRLRGVPDRFSGSRSGNTATLTINSLQAEDEADYYCGSGNSRNYVFGSGTRLTVLSQPKSAPSVTLFPPSKEELDTNKATVVCLISDFYPGSVNVVWKADGSTINQNVKTTQASKQSNSKYAASSYLTLTGSEWKSKSSYTCEVTHEGSTVTKTVKPSECS
B2: Mutation 1-43 (antibody)
heavy: QVRLQESGPSQVKPAQTLSLTCAISGFSVTTYYLDWVRHTPGKPPEWLAQMTKDGNAVHQPTVRSRLSITRDTSKSQVFLKLTGVTTEDTAVYYCVRGIIDFGPGLLVTVSSASTTPPKVYPLTSCCGDTSSSIVTLGCLVSSYMPEPVTVTWNSGALTSGVHTFPAILQSSGLYSLSSVVTVPASTSGAQTFICNVAHPASSTKVDKRVEPGCPDPCKHCRCPPPELPGGPSVFIFPPKPKDTLTISGTPEVTCVVVDVGQDDPEVQFSWFVDNVEVRTARTKPREEQFNSTFRVVSALPIQHQDWTGGKEFKCKVHNEGLPAPIVRTISRTKGQAREPQVYVLAPPQEELSKSTLSVTCLVTGFYPDYIAVEWQKNGQPESEDKYGTTTSQLDADGSYFLYSRLRVDKNSWQEGDTYACVVMHEALHNHYTQKSISKPPGK
light: QAVLTQPSSVSRSLGQTVSITCSGSSDNVGFGDYLNWFQLIPGSAPKTLIFGASSRLRGVPDRFSGSRSGNTATLTINSLQAEDEADYYCGSANSRGGYVFGSGTRLTVLSQPKSAPSVTLFPPSKEELDTNKATVVCLISDFYPGSVNVVWKADGSTINQNVKTTQASKQSNSKYAASSYLTLTGSEWKSKSSYTCEVTHEGSTVTKTVKPSECS
B3: Mutation 1-45 (antibody)
heavy: QVRLQESGPSQVKPAQTLSLTCAISGFSITTYYIDWVRHTPGKPPEWLAQMTKDGNAVHQPTLRSRLSITRDTSKSQVFLKLTGVTTEDTAVYYCVRGLIDFGPGLLVTVSSASTTPPKVYPLTSCCGDTSSSIVTLGCLVSSYMPEPVTVTWNSGALTSGVHTFPAILQSSGLYSLSSVVTVPASTSGAQTFICNVAHPASSTKVDKRVEPGCPDPCKHCRCPPPELPGGPSVFIFPPKPKDTLTISGTPEVTCVVVDVGQDDPEVQFSWFVDNVEVRTARTKPREEQFNSTFRVVSALPIQHQDWTGGKEFKCKVHNEGLPAPIVRTISRTKGQAREPQVYVLAPPQEELSKSTLSVTCLVTGFYPDYIAVEWQKNGQPESEDKYGTTTSQLDADGSYFLYSRLRVDKNSWQEGDTYACVVMHEALHNHYTQKSISKPPGK
light: QAVLTQPSSVSRSLGQTVSITCSGSSDQVGFGDYINWFQLIPGSAPKTLIFGASSRIRGVPDRFSGSRSGNTATLTINSLQAEDEADYYCGSPNSRGGYVFGSGTRLTVLSQPKSAPSVTLFPPSKEELDTNKATVVCLISDFYPGSVNVVWKADGSTINQNVKTTQASKQSNSKYAASSYLTLTGSEWKSKSSYTCEVTHEGSTVTKTVKPSECS
B4: Mutation 1-35 (antibody)
heavy: QVRLQESGPSQVKPAQTLSLTCAISGFSVTTYYVDWVRHTPGKPPEWLAQMTKDGNAVHQPTIRSRLSITRDTSKSQVFLKLTGVTTEDTAVYYCVRGVIDFGPGLLVTVSSASTTPPKVYPLTSCCGDTSSSIVTLGCLVSSYMPEPVTVTWNSGALTSGVHTFPAILQSSGLYSLSSVVTVPASTSGAQTFICNVAHPASSTKVDKRVEPGCPDPCKHCRCPPPELPGGPSVFIFPPKPKDTLTISGTPEVTCVVVDVGQDDPEVQFSWFVDNVEVRTARTKPREEQFNSTFRVVSALPIQHQDWTGGKEFKCKVHNEGLPAPIVRTISRTKGQAREPQVYVLAPPQEELSKSTLSVTCLVTGFYPDYIAVEWQKNGQPESEDKYGTTTSQLDADGSYFLYSRLRVDKNSWQEGDTYACVVMHEALHNHYTQKSISKPPGK
light: QAVLTQPSSVSRSLGQTVSITCSGSSDQVGFGDYVNWFQLIPGSAPKTLIFGAYSRVRGVPDRFSGSRSGNTATLTINSLQAEDEADYYCGSPNSRGGYVFGSGTRLTVLSQPKSAPSVTLFPPSKEELDTNKATVVCLISDFYPGSVNVVWKADGSTINQNVKTTQASKQSNSKYAASSYLTLTGSEWKSKSSYTCEVTHEGSTVTKTVKPSECS
B5: Mutation 1-29 (antibody)
heavy: QVRLQESGPSQVKPAQTLSLTCAISGFSITTYYVDWVRHTPGKPPEWLAQMTKDGNAVHNPTVRSRLSITRDTSKSQVFLKLTGVTTEDTAVYYCVRGVIDFGPGLLVTVSSASTTPPKVYPLTSCCGDTSSSIVTLGCLVSSYMPEPVTVTWNSGALTSGVHTFPAILQSSGLYSLSSVVTVPASTSGAQTFICNVAHPASSTKVDKRVEPGCPDPCKHCRCPPPELPGGPSVFIFPPKPKDTLTISGTPEVTCVVVDVGQDDPEVQFSWFVDNVEVRTARTKPREEQFNSTFRVVSALPIQHQDWTGGKEFKCKVHNEGLPAPIVRTISRTKGQAREPQVYVLAPPQEELSKSTLSVTCLVTGFYPDYIAVEWQKNGQPESEDKYGTTTSQLDADGSYFLYSRLRVDKNSWQEGDTYACVVMHEALHNHYTQKSISKPPGK
light: QAVLTQPSSVSRSLGQTVSITCSGSSDNVGFGDYINWFQLIPGSAPKTLIFGASSRVRGVPDRFSGSRSGNTATLTINSLQAEDEADYYCGSGNSRNYVFGSGTRLTVLSQPKSAPSVTLFPPSKEELDTNKATVVCLISDFYPGSVNVVWKADGSTINQNVKTTQASKQSNSKYAASSYLTLTGSEWKSKSSYTCEVTHEGSTVTKTVKPSECS
B6: Mutation 1-23 (antibody)
heavy: QVRLQESGPSQVKPAQTLSLTCAISGFSLTTYYVDWVRHTPGKPPEWLAQMTKDGNAVHQPTIRSRLSITRDTSKSQVFLKLTGVTTEDTAVYYCVRGVIDFGPGLLVTVSSASTTPPKVYPLTSCCGDTSSSIVTLGCLVSSYMPEPVTVTWNSGALTSGVHTFPAILQSSGLYSLSSVVTVPASTSGAQTFICNVAHPASSTKVDKRVEPGCPDPCKHCRCPPPELPGGPSVFIFPPKPKDTLTISGTPEVTCVVVDVGQDDPEVQFSWFVDNVEVRTARTKPREEQFNSTFRVVSALPIQHQDWTGGKEFKCKVHNEGLPAPIVRTISRTKGQAREPQVYVLAPPQEELSKSTLSVTCLVTGFYPDYIAVEWQKNGQPESEDKYGTTTSQLDADGSYFLYSRLRVDKNSWQEGDTYACVVMHEALHNHYTQKSISKPPGK
light: QAVLTQPSSVSRSLGQTVSITCSGSSDQVGFGDYVNWFQLIPGSAPKTLIFGAYSRVRGVPDRFSGSRSGNTATLTINSLQAEDEADYYCGSPNSRGGYVFGSGTRLTVLSQPKSAPSVTLFPPSKEELDTNKATVVCLISDFYPGSVNVVWKADGSTINQNVKTTQASKQSNSKYAASSYLTLTGSEWKSKSSYTCEVTHEGSTVTKTVKPSECS
B7: Mutation 1-30 (antibody, V domains shown)
VH: QVRLQESGPSQVKPAQTLSLTCAISGFSLTTYYIDWVRHTPGKPPEWLAQMTKDGNAVHNPTVRSRLSITRDTSKSQVFLKLTGVTTEDTAVYYCVRGIIDWGPGLLVTVSS
VL: QAVLTQPSSVSRSLGQTVSITCSGSSDNVGFGDYINWFQLIPGSAPKTLIFGATSRIRGVPDRFSGSRSGNTATLTINSLQAEDEADYYCGSPNSRNYVFGSGTRLTVLS
B8: Mutation 1-40 (antibody, V domains shown)
VH: QVRLQESGPSQVKPAQTLSLTCAISGFSLTTYYLDWVRHTPGKPPEWLAQMTKDGNAVHQPTVRSRLSITRDTSKSQVFLKLTGVTTEDTAVYYCVRGVIDWGPGLLVTVSS
VL: QAVLTQPSSVSRSLGQTVSITCSGSSDNVGFGDYLNWFQLIPGSAPKTLIFGAYSRLRGVPDRFSGSRSGNTATLTINSLQAEDEADYYCGSPNSRNYVFGSGTRLTVLS
B9: Mutation 1-46 (antibody, V domains shown)
VH: QVRLQESGPSQVKPAQTLSLTCAISGFSITTYYLDWVRHTPGKPPEWLAQMTKDGNAVHNPTIRSRLSITRDTSKSQVFLKLTGVTTEDTAVYYCVRGVIDWGPGLLVTVSS
VL: QAVLTQPSSVSRSLGQTVSITCSGSSDQVGFGDYLNWFQLIPGSAPKTLIFGASSRLRGVPDRFSGSRSGNTATLTINSLQAEDEADYYCGSPNSRGGYVFGSGTRLTVLS
B10: Mutation 1-44 (antibody, V domains shown)
VH: QVRLQESGPSQVKPAQTLSLTCAISGFSVTTYYVDWVRHTPGKPPEWLAQMTKDGNAVHNPTLRSRLSITRDTSKSQVFLKLTGVTTEDTAVYYCVRGLIDWGPGLLVTVSS
VL: QAVLTQPSSVSRSLGQTVSITCSGSSDNVGFGDYVNWFQLIPGSAPKTLIFGASSRVRGVPDRFSGSRSGNTATLTINSLQAEDEADYYCGSANSRNYVFGSGTRLTVLS
B11: Mutation 1-41 (antibody, V domains shown)
VH: QVRLQESGPSQVKPAQTLSLTCAISGFSVTTYYIDWVRHTPGKPPEWLAQMTKDGNAVHNPTVRSRLSITRDTSKSQVFLKLTGVTTEDTAVYYCVRGIIDWGPGLLVTVSS
VL: QAVLTQPSSVSRSLGQTVSITCSGSSDNVGFGDYINWFQLIPGSAPKTLIFGAYSRVRGVPDRFSGSRSGNTATLTINSLQAEDEADYYCGSGNSRNYVFGSGTRLTVLS

The target in this assay is T1, Recombinant NT antigen (N-terminal …). Put plainly: indirect ELISA, KD calculated from half-max OD at 4 coating concentrations. The essentials:
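Plates coated overnight at 4 °C with recombinant NT antigen at 3, 1.5, 0.75 or 0.375 μg/ml, blocked with 20% BSA. Antibody, 2-fold dilutions from 1000 to 0.977 ng/ml, was incubated 30 min at 37 °C, then detected with HRP anti-IgG, OD450/630. KD was derived from half-max OD across coating levels.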
In general, Kd refers to the free concentration of one partner at which half of the binding sites on the other are occupied at equilibrium, for simple one-to-one binding. As to B1, the dissociation constant Kd was 1.51 nM.

Take B2: the Kd was 2.93 nM.

As for B3, the dissociation constant Kd was 1.53 nM.

Turning to B4, the Kd was 1.51 nM.

As for B5, the Kd is 1.49 nM.

Regarding B6, the Kd was 0.81 nM.

For the molecule B7, the Kd is 2.66 nM.

On to B8, for which the equilibrium dissociation constant (Kd) was 3.47 nM.

As for B9, the dissociation constant Kd is 3.49 nM.

Regarding B10, the Kd is 1.26 nM.

With B11, the dissociation constant (Kd) is 2.82 nM.
